Patent US20210363257A1 (Pieris, published 2021)

B1: fusion protein SEQ ID NOs: 86 and 93 (bispecific antibody, human IgG4 S228P, kappa, F234A L235A)
heavy: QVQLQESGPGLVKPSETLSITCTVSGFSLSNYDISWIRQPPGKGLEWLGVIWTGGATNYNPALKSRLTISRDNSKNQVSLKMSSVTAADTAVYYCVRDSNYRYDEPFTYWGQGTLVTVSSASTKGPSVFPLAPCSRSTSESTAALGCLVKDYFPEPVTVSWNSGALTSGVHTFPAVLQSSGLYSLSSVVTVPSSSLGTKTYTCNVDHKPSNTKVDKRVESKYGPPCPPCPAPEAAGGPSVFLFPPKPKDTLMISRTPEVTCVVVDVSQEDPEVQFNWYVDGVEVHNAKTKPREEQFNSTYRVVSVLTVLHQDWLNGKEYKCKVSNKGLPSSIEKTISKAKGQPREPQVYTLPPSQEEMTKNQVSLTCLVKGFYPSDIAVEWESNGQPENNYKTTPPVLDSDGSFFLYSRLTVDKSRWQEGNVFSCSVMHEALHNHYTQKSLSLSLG
light: QDSTSDLIPAPPLSKVPLQQNFQDNQFHGKWYVVGQAGNIRLREDKDPIKMMATIYELKEDKSYDVTMVKFDDKKCMYDIWTFVPGSQPGEFTLGKIKSFPGHTSSLVRVVSTNYNQHAMVFFKFVFQNREEFYITLYGRTKELTSELKENFIRFSKSLGLPENHIVFPVPIDQCIDGGGGGSGGGGSGGGGSEIVLTQSPDTLSVTPKEKVTLTCRASQSIGTNIHWFQQKPGQSPKLLIKYASESISGVPSRFSGSGSGTDFTLTINSVEAEDAATYYCQQSNSWPYTFGQGTKLEIKRTVAAPSVFIFPPSDEQLKSGTASVVCLLNNFYPREAKVQWKVDNALQSGNSQESVTEQDSKDSTYSLSSTLTLSKADYEKHKVYACEVTHQGLSSPVTKSFNRGEC
notes: Antibody-lipocalin mutein fusion, IgG4 S228P backbone; Bivalent to CD137
B2: fusion protein SEQ ID NOs: 92 and 87 (bispecific antibody, human IgG4 S228P, kappa, F234A L235A)
heavy: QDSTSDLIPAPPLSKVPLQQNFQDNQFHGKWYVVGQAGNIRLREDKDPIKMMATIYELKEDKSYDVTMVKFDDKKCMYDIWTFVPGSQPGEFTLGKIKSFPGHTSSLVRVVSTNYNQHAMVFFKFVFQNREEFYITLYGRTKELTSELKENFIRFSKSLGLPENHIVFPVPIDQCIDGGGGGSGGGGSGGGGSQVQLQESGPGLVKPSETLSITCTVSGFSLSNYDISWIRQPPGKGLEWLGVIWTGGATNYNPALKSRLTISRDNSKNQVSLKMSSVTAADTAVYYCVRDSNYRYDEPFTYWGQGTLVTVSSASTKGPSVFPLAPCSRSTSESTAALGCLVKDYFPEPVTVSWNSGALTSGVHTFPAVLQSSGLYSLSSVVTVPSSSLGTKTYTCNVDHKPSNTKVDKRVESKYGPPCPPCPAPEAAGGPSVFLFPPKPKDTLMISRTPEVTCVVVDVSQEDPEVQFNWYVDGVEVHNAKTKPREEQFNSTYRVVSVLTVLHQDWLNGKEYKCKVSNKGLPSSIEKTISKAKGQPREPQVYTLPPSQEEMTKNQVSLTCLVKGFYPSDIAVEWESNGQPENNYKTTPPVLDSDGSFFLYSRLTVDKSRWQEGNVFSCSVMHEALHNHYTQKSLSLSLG
light: EIVLTQSPDTLSVTPKEKVTLTCRASQSIGTNIHWFQQKPGQSPKLLIKYASESISGVPSRFSGSGSGTDFTLTINSVEAEDAATYYCQQSNSWPYTFGQGTKLEIKRTVAAPSVFIFPPSDEQLKSGTASVVCLLNNFYPREAKVQWKVDNALQSGNSQESVTEQDSKDSTYSLSSTLTLSKADYEKHKVYACEVTHQGLSSPVTKSFNRGEC
notes: as for B1
B3: reference CD137 antibody SEQ ID NOs: 28 and 29 (antibody, human IgG4 S228P, kappa, V domains shown)
VH: QVQLQQWGAGLLKPSETLSLTCAVYGGSFSGYYWSWIRQSPEKGLEWIGEINHGGYVTYNPSLESRVTISVDTSKNQFSLKLSSVTAADTAVYYCARDYGPGNYDWYFDLWGRGTLVTVSS
VL: EIVLTQSPATLSLSPGERATLSCRASQSVSSYLAWYQQKPGQAPRLLIYDASNRATGIPARFSGSGSGTDFTLTISSLEPEDFAVYYCQQRSNWPPALTFGGGTKVEIKR
notes: also called anti-CD137 benchmark antibody
B4: fusion protein SEQ ID NOs: 94 and 87 (bispecific antibody, human IgG4 S228P, kappa, F234A L235A)
heavy: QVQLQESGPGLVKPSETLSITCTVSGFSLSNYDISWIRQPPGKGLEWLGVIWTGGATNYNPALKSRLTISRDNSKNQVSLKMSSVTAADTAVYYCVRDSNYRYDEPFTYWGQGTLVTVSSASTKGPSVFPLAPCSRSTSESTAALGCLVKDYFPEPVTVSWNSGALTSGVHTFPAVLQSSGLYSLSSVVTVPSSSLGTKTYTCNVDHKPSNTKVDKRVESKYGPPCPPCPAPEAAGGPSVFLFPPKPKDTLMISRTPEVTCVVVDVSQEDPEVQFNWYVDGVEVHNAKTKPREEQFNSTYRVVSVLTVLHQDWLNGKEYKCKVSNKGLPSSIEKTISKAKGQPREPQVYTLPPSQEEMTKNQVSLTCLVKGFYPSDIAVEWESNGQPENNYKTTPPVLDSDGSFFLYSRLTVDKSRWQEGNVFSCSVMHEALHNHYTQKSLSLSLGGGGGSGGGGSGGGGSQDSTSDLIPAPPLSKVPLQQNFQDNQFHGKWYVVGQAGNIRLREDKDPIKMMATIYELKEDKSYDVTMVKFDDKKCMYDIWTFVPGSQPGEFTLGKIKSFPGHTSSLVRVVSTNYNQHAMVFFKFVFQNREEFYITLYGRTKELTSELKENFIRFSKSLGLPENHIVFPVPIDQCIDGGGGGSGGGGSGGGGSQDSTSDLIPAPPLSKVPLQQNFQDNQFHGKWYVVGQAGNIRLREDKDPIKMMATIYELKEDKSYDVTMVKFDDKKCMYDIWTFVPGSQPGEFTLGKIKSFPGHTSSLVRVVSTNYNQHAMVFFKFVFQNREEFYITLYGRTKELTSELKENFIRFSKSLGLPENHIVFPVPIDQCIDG
light: B2 light
notes: Antibody-lipocalin mutein fusion, IgG4 S228P backbone
B5: PD-L1 antibody SEQ ID NOs: 86 and 87 (building block of the fusion proteins) (antibody, human IgG4 S228P, kappa, F234A L235A, V domains shown)
VH: QVQLQESGPGLVKPSETLSITCTVSGFSLSNYDISWIRQPPGKGLEWLGVIWTGGATNYNPALKSRLTISRDNSKNQVSLKMSSVTAADTAVYYCVRDSNYRYDEPFTYWGQGTLVTVSS
VL: EIVLTQSPDTLSVTPKEKVTLTCRASQSIGTNIHWFQQKPGQSPKLLIKYASESISGVPSRFSGSGSGTDFTLTINSVEAEDAATYYCQQSNSWPYTFGQGTKLEIKR

The binders below were run against T1, human CD137 expressed on cells (human, UniProt Q07011 24-255) (assay: cell-based or functional assay).
T1 sequence (Q07011 24-255): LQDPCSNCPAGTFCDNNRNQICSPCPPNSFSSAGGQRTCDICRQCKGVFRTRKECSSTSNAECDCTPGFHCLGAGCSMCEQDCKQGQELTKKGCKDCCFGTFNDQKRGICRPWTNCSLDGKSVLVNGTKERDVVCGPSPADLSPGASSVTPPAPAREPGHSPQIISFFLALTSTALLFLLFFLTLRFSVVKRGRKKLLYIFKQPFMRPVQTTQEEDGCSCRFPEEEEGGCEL

EC50 [nM] With RKO cells (CD137 Bioassay, NFκB-luc2/CD137 Jurkat luminescence) [nM]	Binder
0.264	B1
0.181	B2
0.814	B3

Each binder was assayed against T1, human CD137 expressed on cells (assay: flow cytometry, Flp-In-CHO::huCD137 cells).
Protocol: (§1) The geometric means of the fluorescence intensity were used to calculate EC₅₀ values using nonlinear regression (shared bottom, SLOPE=1).
(§2) 5×10⁴ cells per well were incubated for 1 h in ice-cold PBS containing 5% fetal calf serum (PBS-FCS). A dilution series of the fusion proteins and control antibodies were added to the cells and incubated for 1 h on ice. Cells were washed twice with PBS and then incubated with a goat anti-hIgG Alexa647-labeled antibody for 30 min on ice. Cells were subsequently washed and analyzed using iQue Flow cytometer (Intellicyte Screener). Mean geometric fluorescent signals were plotted and fitted with Graphpad software using nonlinear regression (shared bottom, SLOPE=1).

EC50 [nM]	Binder
12.7	B1
11.9	B2
4.15	B4
1.31	B3

Each binder was assayed against T2, human PD-L1 expressed on cells (human, UniProt Q9NZQ7 19-290) (assay: flow cytometry, Flp-In-CHO::huPDL-1 cells).
T2 construct: whole, on cells; also called Flp-In-CHO::huPDL-1; RKO cells
Protocol: as §1, §2

T2 sequence (Q9NZQ7 19-290): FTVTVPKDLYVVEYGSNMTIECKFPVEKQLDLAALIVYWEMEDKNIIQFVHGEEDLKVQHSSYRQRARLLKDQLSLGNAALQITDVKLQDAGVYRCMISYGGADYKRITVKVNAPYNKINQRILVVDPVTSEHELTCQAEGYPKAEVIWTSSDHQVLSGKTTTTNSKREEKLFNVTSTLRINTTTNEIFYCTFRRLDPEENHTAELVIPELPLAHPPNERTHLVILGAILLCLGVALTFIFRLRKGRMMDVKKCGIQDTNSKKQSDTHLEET

EC50 [nM]	Binder
4.63	B1
2.95	B2
6.99	B4
2.96	B5

These binders were tested against T3, cynomolgus CD137 expressed on cells (cynomolgus, UniProt A9YYE7 24-254) (assay: flow cytometry, Flp-In-CHO::cynoCD137 cells).
T3 construct: also called Flp-In-CHO::cynoCD137
Protocol: as §1, §2

T3 sequence (A9YYE7 entry or part of it limits assumed): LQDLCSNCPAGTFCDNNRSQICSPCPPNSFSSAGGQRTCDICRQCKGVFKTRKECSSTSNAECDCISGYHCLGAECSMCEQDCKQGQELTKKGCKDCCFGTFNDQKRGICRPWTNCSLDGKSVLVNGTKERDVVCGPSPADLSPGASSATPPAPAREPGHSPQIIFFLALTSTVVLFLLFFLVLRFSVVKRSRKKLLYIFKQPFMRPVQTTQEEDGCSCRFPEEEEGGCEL

EC50 [nM]	Binder
6.92	B4

These binders were tested against T4, cynomolgus PD-L1 expressed on cells (cynomolgus) (assay: flow cytometry, Flp-In-CHO::cynoPDL-1 cells).
T4 construct: whole, on cells; also called Flp-In-CHO::cynoPDL-1
Protocol: as §1, §2

EC50 [nM]	Binder
2.03	B1
2.03	B2
5.89	B4
3.55	B5

Each binder was assayed against T2, human PD-L1 expressed on cells (assay: flow cytometry, RKO tumor cells (PD-L1-positive)).
Protocol: as §2
For flow cytometric analysis, RKO cells were incubated with fusion proteins and detected using a fluorescently labeled anti-human IgG antibody as described in Example 6.

EC50 [nM]	Binder
1.38	B1
1	B2
0.69	B4
0.32	B5

What follows are binders tested against cyCD137-Fc (cynomolgus CD137 C-terminally fused to Fc) (cynomolgus) (assay: ELISA, cyCD137-Fc coated, detection anti-NGAL-HRP).
Protocol: (§3) Recombinant huPD-L1-His or cyPD-L1-His (human or cynomolgus PD-L1 with a C-terminal polyhistidine tag, R&D Systems or Sino Biologics) at the concentration of 1 μg/mL in PBS was coated overnight on microtiter plates at 4° C. After washing with PBS-0.05% T (PBS supplemented with 0.05% (v/v) Tween 20), the plates were blocked with 2% BSA (w/v) in PBS-0.1% T (PBS supplemented with 0.1% (v/v) Tween 20) for 1 h at room temperature. […] Bound molecules under study were detected by incubation with 1:5000 diluted anti-human IgG Fc-HRP (Jackson Laboratory) in PBS-0.1% T-2% BSA. After an additional wash step, fluorogenic HRP substrate (QuantaBlu, Thermo) was added to each well and the fluorescence intensity was detected using a fluorescence microplate reader.
(§4) The same ELISA setup was also employed to determine the binding potency of fusion proteins to CD137, where huCD137-His (human CD137 with C-terminal polyhistidine tag, R&D Systems) or cyCD137-Fc (cynomolgus CD137 C-terminally fused to Fc) was instead coated on a microtiter plate. The testing agents were similarly titrated and bound agents were detected via anti-NGAL-HRP.

EC50 [nM]	Binder
8.1	B1
9.8	B2
0.19	B4

The binders below were run against T5, huCD137-His (human CD137 with a C-terminal polyhistidine tag) (human, UniProt Q07011 24-186) (assay: ELISA, huCD137-His coated, detection anti-NGAL-HRP).
T5 construct: Bought; also called huCD137-His-Bio
Protocol: as §3, §4

T5 sequence (Q07011 24-186 limits assumed): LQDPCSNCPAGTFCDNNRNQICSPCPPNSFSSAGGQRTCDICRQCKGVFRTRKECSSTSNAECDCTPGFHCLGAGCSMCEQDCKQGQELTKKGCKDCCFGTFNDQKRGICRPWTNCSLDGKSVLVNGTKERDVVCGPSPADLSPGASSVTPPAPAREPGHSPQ

EC50 [nM]	Binder
0.35	B1
0.41	B2
0.16	B4

What follows are binders tested against T6, cyPD-L1-His (cynomolgus PD-L1 with a C-terminal polyhistidine tag) (cynomolgus) (assay: ELISA, cyPD-L1-His coated, detection anti-human IgG Fc-HRP).
T6 construct: Bought
Protocol: as §3

EC50 [nM]	Binder
0.17	B1
0.15	B2
0.15	B4
0.1	B5

Each binder was assayed against T7, huPD-L1-His (human PD-L1 with a C-terminal polyhistidine tag) (human, UniProt Q9NZQ7 19-239) (assay: ELISA, huPD-L1-His coated, detection anti-human IgG Fc-HRP).
T7 construct: Bought; also called biotinylated huPD-L1-His
Protocol: as §3

T7 sequence (Q9NZQ7 19-239 limits assumed): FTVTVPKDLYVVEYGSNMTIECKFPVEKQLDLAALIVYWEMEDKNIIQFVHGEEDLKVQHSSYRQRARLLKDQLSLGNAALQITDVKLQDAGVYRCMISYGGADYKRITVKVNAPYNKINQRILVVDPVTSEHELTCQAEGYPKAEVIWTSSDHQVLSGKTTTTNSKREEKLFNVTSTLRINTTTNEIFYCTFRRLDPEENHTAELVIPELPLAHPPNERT

EC50 [nM]	Binder
0.19	B1
0.16	B2
0.18	B4
0.12	B5

These binders were tested against T8, huPD-L1-Fc (recombinant human PD-L1 Fc fusion) (human, UniProt Q9NZQ7 19-239) (assay: competitive ELISA, huPD-1-His coated, 15 nM huPD-L1-Fc tracer, binder titrated).
T8 construct: Bought; also called tracer huPD-L1-Fc
Protocol: Recombinant huPD-1-His (Acrobiosystems) in PBS (1 μg/mL) was coated overnight on microtiter plates at 4° C. The plates were washed five times after each incubation step with 100 μL PBS-0.05% T (PBS supplemented with 0.05% (v/v) Tween 20). The plates were blocked with 2% BSA (w/v) in PBS-0.1% T (PBS supplemented with 0.1% (v/v) Tween 20) for 1 h at room temperature and subsequently washed again. […] The mixtures of fusion proteins and the tracer were added to the plates and incubated for 20 min at room temperature following by five washing steps with 100 μL PBS-0.05% T. Subsequently, a 1:5000 dilution of goat-anti human IgG-Fc HRP (Jackson) was added to the wells and incubated for 1 h. After an additional wash step, fluorogenic HRP substrate (QuantaBlu, Thermo) was added to each well, and the fluorescence intensity was detected using a fluorescence microplate reader.

T8 sequence (Q9NZQ7 19-239 limits assumed): as above

IC50 [nM]	Binder
3.2	B1
3.4	B2
2.4	B4
3.5	B5

The binders below were run against T5, huCD137-His (human CD137 with a …) (assay: SPR (Biacore), binder captured by anti-human IgG Fc, huCD137-His in solution, 25 C, 1:1 model).
Protocol: (§5) The binding kinetics and affinity of exemplary fusion proteins to huPD-L1-His or huCD137-His (human PD-L1 or human CD137 with a C-terminal polyhistidine tag, R&D Systems) were determined by surface plasmon resonance (SPR) using a Biacore 8K or a Biacore T200 (GE Healthcare).
(§6) The anti-human IgG Fc antibody (GE Healthcare) was immobilized on a CM5 sensor chip using standard amine chemistry: the carboxyl groups on the chip were activated using 1-ethyl-3-(3-dimethylaminopropyl)-carbodiimide (EDC) and N-hydroxysuccinimide (NHS). Subsequently, anti-human IgG Fc antibody solution (GE Healthcare) at a concentration of 25 μg/mL in 10 mM sodium acetate (pH 5.0) was applied at a flow rate of 5 μL/min until an immobilization level of 6000-10000 resonance units (RU) was achieved. Residual non-reacted NHS-esters were blocked by passing a solution of 1M ethanolamine across the surface. The reference channel was treated in an analogous manner. […] After each capture step, the needle was washed.
(§7) Double referencing was used and the 1:1 binding model was used to fit the raw data.

Kd [nM]	koff [s⁻¹]	kon [M⁻¹ s⁻¹]	Binder
3.55	0.00013	36800	B1
5.97	0.000208	34800	B2
5.5	0.000224	40700	B4
6.24			B3

What follows are binders tested against T7, huPD-L1-His (human PD-L1 with a …) (assay: SPR (Biacore), binder captured by anti-human IgG Fc, huPD-L1-His in solution, 25 C, 1:1 model).
Protocol: as §5, §6, §7

Kd [nM]	koff [s⁻¹]	kon [M⁻¹ s⁻¹]	Binder
1.38	0.000754	546000	B1
1.02	0.000803	787000	B2
0.608	0.000916	1.51e+06	B4
0.593	0.000649	1.09e+06	B5

What follows are binders tested against T5, huCD137-His (human CD137 with a …) (assay: dual-binding ELISA, huCD137-His coated, binder titrated, detection with biotinylated huPD-L1-His).

EC50 [nM]	Binder
6.7	B1
7.2	B2
2.6	B4

Each binder was assayed against T7, huPD-L1-His (human PD-L1 with a …) (assay: dual-binding ELISA, huPD-L1-His coated, binder titrated, detection with biotinylated huCD137-His).
Protocol: Recombinant huPD-L1-His (R&D Systems) in PBS (1 μg/mL) was coated overnight on microtiter plates at 4° C. The plates were washed five times after each incubation step with 100 μL PBS-0.05% T. The plates were blocked with 2% BSA (w/v) in PBS-0.1% T for 1 h at room temperature and subsequently washed again. Different concentrations of tested fusion proteins were added to the wells and incubated for 1 h at room temperature, followed by a wash step. […] After washing, a 1:5000 dilution of ExtrAvidin-HRP (Sigma-Aldrich) in PBS-0.1% T-2% BSA was added to the wells and incubated for 1 h. After an additional wash step, fluorogenic HRP substrate (QuantaBlu, Thermo) was added to each well, and the fluorescence intensity was detected using a fluorescence microplate reader.

EC50 [nM]	Binder
0.74	B1
1.2	B2
0.48	B4
